Measurements reported in patent publication US10858688 (KYOTO UNIVERSITY, dated 2020).
Where no end group is shown, it is not given here. Atto 488 = fluorescent body linked to the N terminus

Biological target: T1, actin filament in fixed Xenopus laevis XTC cells (Xenopus laevis)
T1 construct: whole, on cells; Polymer of actin in fixed cells
Assay: speckle lifetime distribution in fixed XTC cells, 10 ms/frame at 100 Hz, single exponential fit (FIG. 9a)

half-life: 0.023 s
B1: Lifeact peptide (sequence number 19) with an Atto 488 fluorescent body linked to an N terminus (peptide)
peptide: {Atto 488}-MGVADLIKKFESISKEE
notes: Purchased from Sigma-Aldrich; also called Atto488-Lifeact; Atto 488-Lifeact
